# Starred links: 1 amine or outer side, 2 acyl side, 3 side chain; linkers in the order of their positions; H or OH if unused. Non-standard residues stand in square brackets, D forms with d. Groups on a side chain read outwards from the residue. No end group written: not given here. *: point of attachment. C20 diacid = O=C(O)CCCCCCCCCCCCCCCCCCC(=O)*; C18 diacid = O=C(O)CCCCCCCCCCCCCCCCC(=O)*; C16 diacid = O=C(O)CCCCCCCCCCCCCCC(=O)*; γGlu = O=C(O)[C@H](CCC(=O)[*:2])N[*:1]; Palmitoyl = CCCCCCCCCCCCCCCC(=O)*; AEEA = NCCOCCOCC(=O)O; Aib = CC(C)(N)C(=O)O
# B1: SEQ ID NO: 183 (peptide)
# peptide: IVLSLD[dV]PIKLK(C18 diacid)QILLKQARQK[Aib]QRAQAEKNKRILERV-NH2
# modifications: N-terminus assumed
# SMILES: CC[C@H](C)[C@H](N)C(=O)N[C@H](C(=O)N[C@@H](CC(C)C)C(=O)N[C@@H](CO)C(=O)N[C@@H](CC(C)C)C(=O)N[C@@H](CC(=O)O)C(=O)N[C@@H](C(=O)N1CCC[C@H]1C(=O)N[C@H](C(=O)N[C@@H](CCCCN)C(=O)N[C@@H](CC(C)C)C(=O)N[C@@H](CCCCNC(=O)CCCCCCCCCCCCCCCCC(=O)O)C(=O)N[C@@H](CCC(N)=O)C(=O)N[C@H](C(=O)N[C@@H](CC(C)C)C(=O)N[C@@H](CC(C)C)C(=O)N[C@@H](CCCCN)C(=O)N[C@@H](CCC(N)=O)C(=O)N[C@@H](C)C(=O)N[C@@H](CCCNC(=N)N)C(=O)N[C@@H](CCC(N)=O)C(=O)N[C@@H](CCCCN)C(=O)NC(C)(C)C(=O)N[C@@H](CCC(N)=O)C(=O)N[C@@H](CCCNC(=N)N)C(=O)N[C@@H](C)C(=O)N[C@@H](CCC(N)=O)C(=O)N[C@@H](C)C(=O)N[C@@H](CCC(=O)O)C(=O)N[C@@H](CCCCN)C(=O)N[C@@H](CC(N)=O)C(=O)N[C@@H](CCCCN)C(=O)N[C@@H](CCCNC(=N)N)C(=O)N[C@H](C(=O)N[C@@H](CC(C)C)C(=O)N[C@@H](CCC(=O)O)C(=O)N[C@@H](CCCNC(=N)N)C(=O)N[C@H](C(N)=O)C(C)C)[C@@H](C)CC)[C@@H](C)CC)[C@@H](C)CC)C(C)C)C(C)C
# B2: SEQ ID NO: 184 (peptide)
# peptide: IVLSLD[dV]PIKLK(C18 diacid)QILLKQERQKKQRQQAEKNKQILAQV-NH2
# modifications: N-terminus assumed
# SMILES: CC[C@H](C)[C@H](N)C(=O)N[C@H](C(=O)N[C@@H](CC(C)C)C(=O)N[C@@H](CO)C(=O)N[C@@H](CC(C)C)C(=O)N[C@@H](CC(=O)O)C(=O)N[C@@H](C(=O)N1CCC[C@H]1C(=O)N[C@H](C(=O)N[C@@H](CCCCN)C(=O)N[C@@H](CC(C)C)C(=O)N[C@@H](CCCCNC(=O)CCCCCCCCCCCCCCCCC(=O)O)C(=O)N[C@@H](CCC(N)=O)C(=O)N[C@H](C(=O)N[C@@H](CC(C)C)C(=O)N[C@@H](CC(C)C)C(=O)N[C@@H](CCCCN)C(=O)N[C@@H](CCC(N)=O)C(=O)N[C@@H](CCC(=O)O)C(=O)N[C@@H](CCCNC(=N)N)C(=O)N[C@@H](CCC(N)=O)C(=O)N[C@@H](CCCCN)C(=O)N[C@@H](CCCCN)C(=O)N[C@@H](CCC(N)=O)C(=O)N[C@@H](CCCNC(=N)N)C(=O)N[C@@H](CCC(N)=O)C(=O)N[C@@H](CCC(N)=O)C(=O)N[C@@H](C)C(=O)N[C@@H](CCC(=O)O)C(=O)N[C@@H](CCCCN)C(=O)N[C@@H](CC(N)=O)C(=O)N[C@@H](CCCCN)C(=O)N[C@@H](CCC(N)=O)C(=O)N[C@H](C(=O)N[C@@H](CC(C)C)C(=O)N[C@@H](C)C(=O)N[C@@H](CCC(N)=O)C(=O)N[C@H](C(N)=O)C(C)C)[C@@H](C)CC)[C@@H](C)CC)[C@@H](C)CC)C(C)C)C(C)C
# B3: SEQ ID NO: 222 (peptide)
# peptide: IVLSLD[dV]PTKLK([γGlu-C16 diacid])QKLLKQERQRKEREQAEKNVRILERV-NH2
# modifications: N-terminus assumed
# SMILES: CC[C@H](C)[C@H](N)C(=O)N[C@H](C(=O)N[C@@H](CC(C)C)C(=O)N[C@@H](CO)C(=O)N[C@@H](CC(C)C)C(=O)N[C@@H](CC(=O)O)C(=O)N[C@@H](C(=O)N1CCC[C@H]1C(=O)N[C@H](C(=O)N[C@@H](CCCCN)C(=O)N[C@@H](CC(C)C)C(=O)N[C@@H](CCCCNC(=O)CC[C@H](NC(=O)CCCCCCCCCCCCCCC(=O)O)C(=O)O)C(=O)N[C@@H](CCC(N)=O)C(=O)N[C@@H](CCCCN)C(=O)N[C@@H](CC(C)C)C(=O)N[C@@H](CC(C)C)C(=O)N[C@@H](CCCCN)C(=O)N[C@@H](CCC(N)=O)C(=O)N[C@@H](CCC(=O)O)C(=O)N[C@@H](CCCNC(=N)N)C(=O)N[C@@H](CCC(N)=O)C(=O)N[C@@H](CCCNC(=N)N)C(=O)N[C@@H](CCCCN)C(=O)N[C@@H](CCC(=O)O)C(=O)N[C@@H](CCCNC(=N)N)C(=O)N[C@@H](CCC(=O)O)C(=O)N[C@@H](CCC(N)=O)C(=O)N[C@@H](C)C(=O)N[C@@H](CCC(=O)O)C(=O)N[C@@H](CCCCN)C(=O)N[C@@H](CC(N)=O)C(=O)N[C@H](C(=O)N[C@@H](CCCNC(=N)N)C(=O)N[C@H](C(=O)N[C@@H](CC(C)C)C(=O)N[C@@H](CCC(=O)O)C(=O)N[C@@H](CCCNC(=N)N)C(=O)N[C@H](C(N)=O)C(C)C)[C@@H](C)CC)C(C)C)[C@@H](C)O)C(C)C)C(C)C
# B4: SEQ ID NO: 23 (peptide)
# peptide: IVLSLD[dV]PTKLK([γGlu-Palmitoyl])QKLLKQERQRKER[Aib]QAEKNKRILERV-NH2
# modifications: N-terminus assumed
# SMILES: CCCCCCCCCCCCCCCC(=O)N[C@@H](CCC(=O)NCCCC[C@H](NC(=O)[C@H](CC(C)C)NC(=O)[C@H](CCCCN)NC(=O)[C@@H](NC(=O)[C@@H]1CCCN1C(=O)[C@H](NC(=O)[C@H](CC(=O)O)NC(=O)[C@H](CC(C)C)NC(=O)[C@H](CO)NC(=O)[C@H](CC(C)C)NC(=O)[C@@H](NC(=O)[C@@H](N)[C@@H](C)CC)C(C)C)C(C)C)[C@@H](C)O)C(=O)N[C@@H](CCC(N)=O)C(=O)N[C@@H](CCCCN)C(=O)N[C@@H](CC(C)C)C(=O)N[C@@H](CC(C)C)C(=O)N[C@@H](CCCCN)C(=O)N[C@@H](CCC(N)=O)C(=O)N[C@@H](CCC(=O)O)C(=O)N[C@@H](CCCNC(=N)N)C(=O)N[C@@H](CCC(N)=O)C(=O)N[C@@H](CCCNC(=N)N)C(=O)N[C@@H](CCCCN)C(=O)N[C@@H](CCC(=O)O)C(=O)N[C@@H](CCCNC(=N)N)C(=O)NC(C)(C)C(=O)N[C@@H](CCC(N)=O)C(=O)N[C@@H](C)C(=O)N[C@@H](CCC(=O)O)C(=O)N[C@@H](CCCCN)C(=O)N[C@@H](CC(N)=O)C(=O)N[C@@H](CCCCN)C(=O)N[C@@H](CCCNC(=N)N)C(=O)N[C@H](C(=O)N[C@@H](CC(C)C)C(=O)N[C@@H](CCC(=O)O)C(=O)N[C@@H](CCCNC(=N)N)C(=O)N[C@H](C(N)=O)C(C)C)[C@@H](C)CC)C(=O)O
# B5: SEQ ID NO: 24 (peptide)
# peptide: IVLSLD[dV]PTKLK([AEEA-AEEA-γGlu-C18 diacid])QKLLKQERQRKEREQAEKNKRILERV-NH2
# modifications: N-terminus assumed
# SMILES: CC[C@H](C)[C@H](N)C(=O)N[C@H](C(=O)N[C@@H](CC(C)C)C(=O)N[C@@H](CO)C(=O)N[C@@H](CC(C)C)C(=O)N[C@@H](CC(=O)O)C(=O)N[C@@H](C(=O)N1CCC[C@H]1C(=O)N[C@H](C(=O)N[C@@H](CCCCN)C(=O)N[C@@H](CC(C)C)C(=O)N[C@@H](CCCCNC(=O)COCCOCCNC(=O)COCCOCCNC(=O)CC[C@H](NC(=O)CCCCCCCCCCCCCCCCC(=O)O)C(=O)O)C(=O)N[C@@H](CCC(N)=O)C(=O)N[C@@H](CCCCN)C(=O)N[C@@H](CC(C)C)C(=O)N[C@@H](CC(C)C)C(=O)N[C@@H](CCCCN)C(=O)N[C@@H](CCC(N)=O)C(=O)N[C@@H](CCC(=O)O)C(=O)N[C@@H](CCCNC(=N)N)C(=O)N[C@@H](CCC(N)=O)C(=O)N[C@@H](CCCNC(=N)N)C(=O)N[C@@H](CCCCN)C(=O)N[C@@H](CCC(=O)O)C(=O)N[C@@H](CCCNC(=N)N)C(=O)N[C@@H](CCC(=O)O)C(=O)N[C@@H](CCC(N)=O)C(=O)N[C@@H](C)C(=O)N[C@@H](CCC(=O)O)C(=O)N[C@@H](CCCCN)C(=O)N[C@@H](CC(N)=O)C(=O)N[C@@H](CCCCN)C(=O)N[C@@H](CCCNC(=N)N)C(=O)N[C@H](C(=O)N[C@@H](CC(C)C)C(=O)N[C@@H](CCC(=O)O)C(=O)N[C@@H](CCCNC(=N)N)C(=O)N[C@H](C(N)=O)C(C)C)[C@@H](C)CC)[C@@H](C)O)C(C)C)C(C)C
# B6: SEQ ID NO: 25 (peptide)
# peptide: IVLSLD[dV]PTKLK([γGlu-Palmitoyl])KKLLKQERKRKEREKAEKNARILERV-NH2
# modifications: N-terminus assumed
# SMILES: CCCCCCCCCCCCCCCC(=O)N[C@@H](CCC(=O)NCCCC[C@H](NC(=O)[C@H](CC(C)C)NC(=O)[C@H](CCCCN)NC(=O)[C@@H](NC(=O)[C@@H]1CCCN1C(=O)[C@H](NC(=O)[C@H](CC(=O)O)NC(=O)[C@H](CC(C)C)NC(=O)[C@H](CO)NC(=O)[C@H](CC(C)C)NC(=O)[C@@H](NC(=O)[C@@H](N)[C@@H](C)CC)C(C)C)C(C)C)[C@@H](C)O)C(=O)N[C@@H](CCCCN)C(=O)N[C@@H](CCCCN)C(=O)N[C@@H](CC(C)C)C(=O)N[C@@H](CC(C)C)C(=O)N[C@@H](CCCCN)C(=O)N[C@@H](CCC(N)=O)C(=O)N[C@@H](CCC(=O)O)C(=O)N[C@@H](CCCNC(=N)N)C(=O)N[C@@H](CCCCN)C(=O)N[C@@H](CCCNC(=N)N)C(=O)N[C@@H](CCCCN)C(=O)N[C@@H](CCC(=O)O)C(=O)N[C@@H](CCCNC(=N)N)C(=O)N[C@@H](CCC(=O)O)C(=O)N[C@@H](CCCCN)C(=O)N[C@@H](C)C(=O)N[C@@H](CCC(=O)O)C(=O)N[C@@H](CCCCN)C(=O)N[C@@H](CC(N)=O)C(=O)N[C@@H](C)C(=O)N[C@@H](CCCNC(=N)N)C(=O)N[C@H](C(=O)N[C@@H](CC(C)C)C(=O)N[C@@H](CCC(=O)O)C(=O)N[C@@H](CCCNC(=N)N)C(=O)N[C@H](C(N)=O)C(C)C)[C@@H](C)CC)C(=O)O
# Molecular target: human corticotropin-releasing factor 2α (CRF2 α receptor) (human), Q13324
# Sequence (Q13324 20-411): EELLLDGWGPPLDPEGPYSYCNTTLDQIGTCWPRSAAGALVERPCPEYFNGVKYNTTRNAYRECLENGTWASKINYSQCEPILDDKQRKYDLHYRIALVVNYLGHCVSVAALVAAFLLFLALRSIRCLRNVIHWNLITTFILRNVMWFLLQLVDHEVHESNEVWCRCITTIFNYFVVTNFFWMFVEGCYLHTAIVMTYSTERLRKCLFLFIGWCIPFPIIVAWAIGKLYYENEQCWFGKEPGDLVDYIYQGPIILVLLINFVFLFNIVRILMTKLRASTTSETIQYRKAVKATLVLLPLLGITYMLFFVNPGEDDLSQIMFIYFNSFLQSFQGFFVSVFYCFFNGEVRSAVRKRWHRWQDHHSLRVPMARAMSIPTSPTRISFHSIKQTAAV
# Test: cell-based or functional assay
Binder,"EC50 [nM], 0% HSA [nM]","EC50 [nM], 0.1% HSA [nM]"
B1,0.12,1.58
B2,0.05,2.83
B3,0.01,–
IVLSLD[dV]PTKLK([AEEA-AEEA-γGlu-C20 diacid])KKLLKQERKR[Aib]EREKAEKAARILERV-NH2 [SEQ ID NO: 224],6.85,–
B4,0.02,–
B5,6.95,–
B6,0.09,–
